This is an account of results in publication PMC4654454 (ACS chemical biology, 2015).

One data set concerns the target T1, hORC1 BAH E127G (human, UniProt Q13415 45-171, E127G).
T1 sequence: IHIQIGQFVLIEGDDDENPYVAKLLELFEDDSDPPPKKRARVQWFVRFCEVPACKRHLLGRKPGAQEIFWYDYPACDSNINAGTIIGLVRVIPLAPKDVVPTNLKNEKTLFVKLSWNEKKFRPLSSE
The data set can be described thus: EMSA. Background: Mobility shift assays separate free from complexed probe on a gel.

Another data set has as its target T2, hORC1 BAH F89S (human, UniProt Q13415 45-171, F89S).
T2 sequence: T1 sequence with F45S, G83E
Briefly: EMSA.

Where a chain is given by its changes, count along the chain named.

B1: 14-bp DNA duplex (dsDNA)
DNA 1: GGAGGCCTCCTGCT
DNA 2: AGCAGGAGGCCTCC
For B1, the binding result with hORC1 BAH E127G and with hORC1 BAH F89S was “binds” throughout.
